Data: article PMC4803055

Biological target: T1, Mte1 (YGR042W) (Saccharomyces cerevisiae, UniProt P53227 1-271)
T1 sequence: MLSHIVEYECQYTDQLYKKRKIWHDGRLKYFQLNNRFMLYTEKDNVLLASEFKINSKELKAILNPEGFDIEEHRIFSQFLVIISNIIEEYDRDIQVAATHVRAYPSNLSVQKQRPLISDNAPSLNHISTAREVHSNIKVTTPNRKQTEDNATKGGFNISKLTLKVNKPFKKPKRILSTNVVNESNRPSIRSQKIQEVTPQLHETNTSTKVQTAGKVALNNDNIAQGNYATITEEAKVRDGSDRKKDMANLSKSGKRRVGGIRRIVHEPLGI
Assay: EMSA

Binder: AGCTATGACCATGATTACGAATTGCTTAATTCGTGCAGGCATGGTAGCT (ssDNA) [ssDNA (oligo 1)]
- Kd: 16 ± 3 nM
